In patent US20140087995A1 (published 2014):
Numbered stars: 1 amine (or outer) side, 2 acyl side, 3 side chain; on linkers, the order of the positions; unused ones are H or OH. Bridge positions count the residues as written; N and C are the ends. Side chains are listed from the residue outwards. Ends that are not written are not given here. * marks the point of attachment. C20 diacid = O=C(O)CCCCCCCCCCCCCCCCCCC(=O)*; γGlu = O=C(O)[C@H](CCC(=O)[*:2])N[*:1]

T1: human amylin receptor (amylin 3(a) receptor: human calcitonin receptor with RAMP-3) (human, UniProt P30988 25-474; O60896 24-148, limits assumed)
T1 construct: whole, on cells; Whole cells in the luciferase assay (Assay II a); also called hAmylin-R; hAmylinR
T1 sequence (looked up) 1: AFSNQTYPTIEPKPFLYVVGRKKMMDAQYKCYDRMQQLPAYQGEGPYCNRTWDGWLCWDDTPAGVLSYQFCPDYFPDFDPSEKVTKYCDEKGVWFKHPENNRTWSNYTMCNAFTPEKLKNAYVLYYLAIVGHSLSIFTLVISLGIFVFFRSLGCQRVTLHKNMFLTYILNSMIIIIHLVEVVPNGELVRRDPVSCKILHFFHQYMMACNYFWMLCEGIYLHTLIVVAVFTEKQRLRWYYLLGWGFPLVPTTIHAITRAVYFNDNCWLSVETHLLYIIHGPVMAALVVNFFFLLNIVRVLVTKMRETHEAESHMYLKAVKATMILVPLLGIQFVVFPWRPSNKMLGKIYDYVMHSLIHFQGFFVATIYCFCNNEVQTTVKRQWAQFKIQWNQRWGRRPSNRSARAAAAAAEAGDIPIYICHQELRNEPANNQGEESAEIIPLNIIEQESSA
T1 sequence (looked up) 2: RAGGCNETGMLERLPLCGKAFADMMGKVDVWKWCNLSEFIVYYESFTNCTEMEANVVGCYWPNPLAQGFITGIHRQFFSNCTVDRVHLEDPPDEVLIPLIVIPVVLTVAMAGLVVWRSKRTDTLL

T2: human calcitonin receptor (human, UniProt P30988 25-474)
T2 sequence (looked up): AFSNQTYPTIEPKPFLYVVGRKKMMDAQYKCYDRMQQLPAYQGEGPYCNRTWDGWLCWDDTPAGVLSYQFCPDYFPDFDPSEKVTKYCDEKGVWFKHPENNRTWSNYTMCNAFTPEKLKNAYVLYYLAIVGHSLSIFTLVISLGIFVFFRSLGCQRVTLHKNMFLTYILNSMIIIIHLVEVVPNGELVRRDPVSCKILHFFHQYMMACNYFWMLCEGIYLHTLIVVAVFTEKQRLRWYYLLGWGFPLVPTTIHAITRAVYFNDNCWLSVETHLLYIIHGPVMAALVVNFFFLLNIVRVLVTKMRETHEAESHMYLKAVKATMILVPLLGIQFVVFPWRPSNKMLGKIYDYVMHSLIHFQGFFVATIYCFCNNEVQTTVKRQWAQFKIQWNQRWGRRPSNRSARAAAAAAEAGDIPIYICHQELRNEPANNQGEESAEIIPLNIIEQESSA


Legend:
[1] = biological target: T1, human amylin receptor (amylin 3(a) …); test: SPA competition binding on membranes of BHK cells with human calcitonin receptor + RAMP-3; displacement of 125I-rat amylin (Assay V)
Protocol: The binding assay was performed using scintillation proximity assay (SPA) beads (RPNQ0001) from PerkinElmer and cell membranes from the Amylin 3(a)/CRE-luc cells (as described in Assay (II)) were used. Membranes were prepared in the following way; the cells were rinsed with PBS and incubated with Versene for approximately 5 min before harvesting. The cells were flushed with PBS and the cell-suspension was centrifuged for 5 min at 1000 rpm. Cells were homogenized (ultrathurrax) in a buffer containing 20 mM Na-HEPES and 10 mM EDTA (pH 7.4) and centrifuged at 20.000 rpm for 15 min. The resulting pellet was resuspended, homogenized and centrifuged (20.000 rpm, 15 min) in a buffer containing 20 mM Na-HEPES and 0.1 mM EDTA (pH 7.4, buffer 2). The resulting pellet was resuspended in buffer 2 and protein concentration was measured (BCA protein Assay, Pierce). The homogenate was kept cold during the whole procedure. The membranes were kept at −80° C. until use. The assay was performed in a 384 well Optiplate (PerkinElmer) in a total volume of 40 ul. Membranes were mixed with SPA beads. Final concentration of membranes 35 ng/μL final and SPA beads was 0.05 mg/well. Test-compounds were dissolved in DMSO and further diluted in assay buffer (50 mM Hepes, pH 7.4, 1 mM CaCl2, 5 mM MgCl₂, 0.1% OA and 0.02% Tween20). […] The final mixture was incubated with shaking at 400 rpm for 120 min at 25° C. prior to centrifugation (1500 rpm, 10 min). Samples were analyzed on TopCounter™ (Packard). The IC₅₀ was calculated using (one site binding competition analysis) GraphPad Prism5 as a measure of receptor affinity.

[2] = biological target: T2, human calcitonin receptor; test: cell-based or functional assay

IC50 [1] [nM] | Ratio hCT/hAmylin funct. [2] [ratio] | hCTR funct. EC50 (pM) [2] [pM] | Binder
0.97 | 4 | – | {C20 diacid-γGlu}-KCNTATCATQRLAEFLRHSSPNFGAIPSPTNVGSNTY-NH2 (disulfide 2-7; SMILES CC[C@H](C)[C@H](NC(=O)[C@H](C)NC(=O)CNC(=O)[C@H](Cc1ccccc1)NC(=O)[C@H](CC(N)=O)NC(=O)[C@@H]1CCCN1C(=O)[C@H](CO)NC(=O)[C@H](CO)NC(=O)[C@H](Cc1c[nH]cn1)NC(=O)[C@H](CCCNC(=N)N)NC(=O)[C@H](CC(C)C)NC(=O)[C@H](Cc1ccccc1)NC(=O)[C@H](CCC(=O)O)NC(=O)[C@H](C)NC(=O)[C@H](CC(C)C)NC(=O)[C@H](CCCNC(=N)N)NC(=O)[C@H](CCC(N)=O)NC(=O)[C@@H](NC(=O)[C@H](C)NC(=O)[C@@H]1CSSC[C@H](NC(=O)[C@H](CCCCN)NC(=O)CC[C@H](NC(=O)CCCCCCCCCCCCCCCCCCC(=O)O)C(=O)O)C(=O)N[C@@H](CC(N)=O)C(=O)N[C@@H]([C@@H](C)O)C(=O)N[C@@H](C)C(=O)N[C@@H]([C@@H](C)O)C(=O)N1)[C@@H](C)O)C(=O)N1CCC[C@H]1C(=O)N[C@@H](CO)C(=O)N1CCC[C@H]1C(=O)N[C@H](C(=O)N[C@@H](CC(N)=O)C(=O)N[C@H](C(=O)NCC(=O)N[C@@H](CO)C(=O)N[C@@H](CC(N)=O)C(=O)N[C@H](C(=O)N[C@@H](Cc1ccc(O)cc1)C(N)=O)[C@@H](C)O)C(C)C)[C@@H](C)O, also called compound 37)
0.072 | 1.1 | – | {C20 diacid-γGlu}-KCNTATCATQRLAEFLRHSSPNFGAIPSSTNVGSNTP-NH2 (disulfide 2-7, also called compound 8)
0.196 | 1.6 | – | {C20 diacid-γGlu-γGlu}-KCNTATCATQRLAEFLRHSSPNFGAIPSSTNVGSNTP-NH2 (disulfide 2-7; SMILES CC[C@H](C)[C@H](NC(=O)[C@H](C)NC(=O)CNC(=O)[C@H](Cc1ccccc1)NC(=O)[C@H](CC(N)=O)NC(=O)[C@@H]1CCCN1C(=O)[C@H](CO)NC(=O)[C@H](CO)NC(=O)[C@H](Cc1c[nH]cn1)NC(=O)[C@H](CCCNC(=N)N)NC(=O)[C@H](CC(C)C)NC(=O)[C@H](Cc1ccccc1)NC(=O)[C@H](CCC(=O)O)NC(=O)[C@H](C)NC(=O)[C@H](CC(C)C)NC(=O)[C@H](CCCNC(=N)N)NC(=O)[C@H](CCC(N)=O)NC(=O)[C@@H](NC(=O)[C@H](C)NC(=O)[C@@H]1CSSC[C@H](NC(=O)[C@H](CCCCN)NC(=O)CC[C@H](NC(=O)CC[C@H](NC(=O)CCCCCCCCCCCCCCCCCCC(=O)O)C(=O)O)C(=O)O)C(=O)N[C@@H](CC(N)=O)C(=O)N[C@@H]([C@@H](C)O)C(=O)N[C@@H](C)C(=O)N[C@@H]([C@@H](C)O)C(=O)N1)[C@@H](C)O)C(=O)N1CCC[C@H]1C(=O)N[C@@H](CO)C(=O)N[C@@H](CO)C(=O)N[C@H](C(=O)N[C@@H](CC(N)=O)C(=O)N[C@H](C(=O)NCC(=O)N[C@@H](CO)C(=O)N[C@@H](CC(N)=O)C(=O)N[C@H](C(=O)N1CCC[C@H]1C(N)=O)[C@@H](C)O)C(C)C)[C@@H](C)O, also called compound 14)
0.196 | 3.9 | 1120 | K([γGlu-C20 diacid])CNTATCATQRLADFLRHSSPNFGAIPSSTNVGPETY-NH2 (disulfide 2-7; N-terminus assumed; SMILES CC[C@H](C)[C@H](NC(=O)[C@H](C)NC(=O)CNC(=O)[C@H](Cc1ccccc1)NC(=O)[C@H](CC(N)=O)NC(=O)[C@@H]1CCCN1C(=O)[C@H](CO)NC(=O)[C@H](CO)NC(=O)[C@H](Cc1c[nH]cn1)NC(=O)[C@H](CCCNC(=N)N)NC(=O)[C@H](CC(C)C)NC(=O)[C@H](Cc1ccccc1)NC(=O)[C@H](CC(=O)O)NC(=O)[C@H](C)NC(=O)[C@H](CC(C)C)NC(=O)[C@H](CCCNC(=N)N)NC(=O)[C@H](CCC(N)=O)NC(=O)[C@@H](NC(=O)[C@H](C)NC(=O)[C@@H]1CSSC[C@H](NC(=O)[C@@H](N)CCCCNC(=O)CC[C@H](NC(=O)CCCCCCCCCCCCCCCCCCC(=O)O)C(=O)O)C(=O)N[C@@H](CC(N)=O)C(=O)N[C@@H]([C@@H](C)O)C(=O)N[C@@H](C)C(=O)N[C@@H]([C@@H](C)O)C(=O)N1)[C@@H](C)O)C(=O)N1CCC[C@H]1C(=O)N[C@@H](CO)C(=O)N[C@@H](CO)C(=O)N[C@H](C(=O)N[C@@H](CC(N)=O)C(=O)N[C@H](C(=O)NCC(=O)N1CCC[C@H]1C(=O)N[C@@H](CCC(=O)O)C(=O)N[C@H](C(=O)N[C@@H](Cc1ccc(O)cc1)C(N)=O)[C@@H](C)O)C(C)C)[C@@H](C)O)
0.794 | 3.8 | – | {C20 diacid-γGlu}-KCNTATCATQRLAEFLRHSSPNFGAIPSSTNVGSETY-NH2 (disulfide 2-7; SMILES CC[C@H](C)[C@H](NC(=O)[C@H](C)NC(=O)CNC(=O)[C@H](Cc1ccccc1)NC(=O)[C@H](CC(N)=O)NC(=O)[C@@H]1CCCN1C(=O)[C@H](CO)NC(=O)[C@H](CO)NC(=O)[C@H](Cc1c[nH]cn1)NC(=O)[C@H](CCCNC(=N)N)NC(=O)[C@H](CC(C)C)NC(=O)[C@H](Cc1ccccc1)NC(=O)[C@H](CCC(=O)O)NC(=O)[C@H](C)NC(=O)[C@H](CC(C)C)NC(=O)[C@H](CCCNC(=N)N)NC(=O)[C@H](CCC(N)=O)NC(=O)[C@@H](NC(=O)[C@H](C)NC(=O)[C@@H]1CSSC[C@H](NC(=O)[C@H](CCCCN)NC(=O)CC[C@H](NC(=O)CCCCCCCCCCCCCCCCCCC(=O)O)C(=O)O)C(=O)N[C@@H](CC(N)=O)C(=O)N[C@@H]([C@@H](C)O)C(=O)N[C@@H](C)C(=O)N[C@@H]([C@@H](C)O)C(=O)N1)[C@@H](C)O)C(=O)N1CCC[C@H]1C(=O)N[C@@H](CO)C(=O)N[C@@H](CO)C(=O)N[C@H](C(=O)N[C@@H](CC(N)=O)C(=O)N[C@H](C(=O)NCC(=O)N[C@@H](CO)C(=O)N[C@@H](CCC(=O)O)C(=O)N[C@H](C(=O)N[C@@H](Cc1ccc(O)cc1)C(N)=O)[C@@H](C)O)C(C)C)[C@@H](C)O, also called compound 22)
0.148 | 4.5 | – | K([γGlu-C20 diacid])CNTATCATQRLAAFLRHSSPNFGAIPSSTNVGPNTY-NH2 (disulfide 2-7; N-terminus assumed; SMILES CC[C@H](C)[C@H](NC(=O)[C@H](C)NC(=O)CNC(=O)[C@H](Cc1ccccc1)NC(=O)[C@H](CC(N)=O)NC(=O)[C@@H]1CCCN1C(=O)[C@H](CO)NC(=O)[C@H](CO)NC(=O)[C@H](Cc1c[nH]cn1)NC(=O)[C@H](CCCNC(=N)N)NC(=O)[C@H](CC(C)C)NC(=O)[C@H](Cc1ccccc1)NC(=O)[C@H](C)NC(=O)[C@H](C)NC(=O)[C@H](CC(C)C)NC(=O)[C@H](CCCNC(=N)N)NC(=O)[C@H](CCC(N)=O)NC(=O)[C@@H](NC(=O)[C@H](C)NC(=O)[C@@H]1CSSC[C@H](NC(=O)[C@@H](N)CCCCNC(=O)CC[C@H](NC(=O)CCCCCCCCCCCCCCCCCCC(=O)O)C(=O)O)C(=O)N[C@@H](CC(N)=O)C(=O)N[C@@H]([C@@H](C)O)C(=O)N[C@@H](C)C(=O)N[C@@H]([C@@H](C)O)C(=O)N1)[C@@H](C)O)C(=O)N1CCC[C@H]1C(=O)N[C@@H](CO)C(=O)N[C@@H](CO)C(=O)N[C@H](C(=O)N[C@@H](CC(N)=O)C(=O)N[C@H](C(=O)NCC(=O)N1CCC[C@H]1C(=O)N[C@@H](CC(N)=O)C(=O)N[C@H](C(=O)N[C@@H](Cc1ccc(O)cc1)C(N)=O)[C@@H](C)O)C(C)C)[C@@H](C)O, also called compound 94)
